US20260184814A1, “BROADLY NE[…] INFLUENZA NEURAMINIDASE” (priority 2022, published 2026)
Read-outs that look alike come from different tables or passages of the source.

Assays:
[1] = molecular target: human FcγRIIIa (F158 allele) (human) (UniProt P08637)
[2] = molecular target: human FcγRIIIa (V158 allele) (human) (UniProt P08637)
[3] = molecular target: human FcγRIIa (H131 allele) (human) (UniProt P12318)
[4] = molecular target: human FcγRIIb (human) (UniProt P31994)
[5] = molecular target: human C1q (human) (UniProt P02745); assay: MSD [cont'd]
human C1q (human), sequence (P02745 23-245 limits assumed, chain 1 of 3): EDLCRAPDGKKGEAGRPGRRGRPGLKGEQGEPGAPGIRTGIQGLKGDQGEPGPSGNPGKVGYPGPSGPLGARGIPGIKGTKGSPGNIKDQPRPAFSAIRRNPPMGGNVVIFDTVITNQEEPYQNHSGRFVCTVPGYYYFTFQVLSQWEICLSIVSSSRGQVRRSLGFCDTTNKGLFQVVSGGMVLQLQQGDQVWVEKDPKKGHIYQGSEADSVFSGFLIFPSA
human C1q (human), sequence (P02746 28-253 limits assumed, chain 2 of 3, further chain): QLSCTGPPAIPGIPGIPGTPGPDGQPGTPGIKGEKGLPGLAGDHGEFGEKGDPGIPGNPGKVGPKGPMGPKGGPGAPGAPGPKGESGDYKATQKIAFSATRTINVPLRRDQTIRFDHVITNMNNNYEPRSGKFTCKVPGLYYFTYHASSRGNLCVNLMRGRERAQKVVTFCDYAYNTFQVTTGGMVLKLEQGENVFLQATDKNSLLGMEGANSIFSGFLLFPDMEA
human C1q (human), sequence (P02747 29-245 limits assumed, chain 3 of 3, further chain): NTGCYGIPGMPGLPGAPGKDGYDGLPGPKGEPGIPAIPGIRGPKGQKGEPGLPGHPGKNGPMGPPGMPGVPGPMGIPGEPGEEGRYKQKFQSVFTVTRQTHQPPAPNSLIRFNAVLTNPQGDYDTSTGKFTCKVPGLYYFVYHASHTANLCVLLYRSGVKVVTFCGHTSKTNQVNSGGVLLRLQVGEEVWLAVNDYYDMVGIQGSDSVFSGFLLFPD

[6] = molecular target: human FcRn (human) (UniProt P55899); assay: MSD [cont'd]
human FcRn (human), sequence (P55899 24-297 limits assumed, chain 1 of 2): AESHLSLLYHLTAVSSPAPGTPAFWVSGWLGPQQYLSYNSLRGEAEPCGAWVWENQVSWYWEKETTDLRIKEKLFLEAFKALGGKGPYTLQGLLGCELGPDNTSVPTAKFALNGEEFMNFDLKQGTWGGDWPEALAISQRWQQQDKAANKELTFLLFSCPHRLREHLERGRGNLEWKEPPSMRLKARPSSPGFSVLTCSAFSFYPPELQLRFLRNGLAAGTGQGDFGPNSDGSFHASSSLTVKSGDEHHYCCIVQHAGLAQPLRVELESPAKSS
human FcRn (human), sequence (chain, as listed by the source limits assumed, chain 2 of 2): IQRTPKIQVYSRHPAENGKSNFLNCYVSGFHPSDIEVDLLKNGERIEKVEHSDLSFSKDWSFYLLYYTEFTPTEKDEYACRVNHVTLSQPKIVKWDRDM

[7] = molecular target: human FcγRIIIa (F158 allele) (human) (UniProt P08637); assay: MSD [cont'd]
[8] = molecular target: human FcγRIIIa (V158 allele) (human) (UniProt P08637); assay: MSD [cont'd]
[9] = molecular target: human FcγRIIIb (human) (UniProt O75015); assay: MSD [cont'd]
human FcγRIIIb (human), sequence (O75015 17-200 limits assumed): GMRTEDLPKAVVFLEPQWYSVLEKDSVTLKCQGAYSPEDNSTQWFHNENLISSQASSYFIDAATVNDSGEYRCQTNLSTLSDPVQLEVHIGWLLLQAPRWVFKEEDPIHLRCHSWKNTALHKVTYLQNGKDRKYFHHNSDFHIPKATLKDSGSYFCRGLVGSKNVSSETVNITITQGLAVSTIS

[10] = molecular target: human FcγRIIa (H131 allele) (human) (UniProt P12318); assay: MSD [cont'd]
[11] = molecular target: human FcγRIIa (R131 allele) (human) (UniProt P12318); assay: MSD [cont'd]
human FcγRIIa (R131 allele) (human), sequence (P12318 34-218 H167R limits assumed): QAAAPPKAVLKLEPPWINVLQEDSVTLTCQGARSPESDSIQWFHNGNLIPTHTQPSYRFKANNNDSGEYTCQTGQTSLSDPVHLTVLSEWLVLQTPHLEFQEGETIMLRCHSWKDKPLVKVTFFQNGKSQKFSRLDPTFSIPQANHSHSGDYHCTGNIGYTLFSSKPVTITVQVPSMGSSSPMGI

[12] = molecular target: human FcγRIIb (human) (UniProt P31994); assay: MSD [cont'd]
[13] = molecular target: human FcγRIIIa (F158 allele) (human) (UniProt P08637); remark: listed apart in the source
[14] = molecular target: human FcγRIIIa (V158 allele) (human) (UniProt P08637); remark: listed apart in the source
[15] = molecular target: human FcγRIIa (H131 allele) (human) (UniProt P12318); remark: listed apart in the source
[16] = molecular target: human FcγRIIb (human) (UniProt P31994); remark: listed apart in the source
[17] = molecular target: human C1q (human) (UniProt P02745); assay: MSD
[18] = molecular target: human FcRn (human) (UniProt P55899); assay: MSD
[19] = molecular target: human FcγRIIIa (F158 allele) (human) (UniProt P08637); assay: MSD
[20] = molecular target: human FcγRIIIa (V158 allele) (human) (UniProt P08637); assay: MSD
[21] = molecular target: human FcγRIIIb (human) (UniProt O75015); assay: MSD
[22] = molecular target: human FcγRIIa (H131 allele) (human) (UniProt P12318); assay: MSD
[23] = molecular target: human FcγRIIa (R131 allele) (human) (UniProt P12318); assay: MSD
[24] = molecular target: human FcγRIIb (human) (UniProt P31994); assay: MSD
[25] = molecular target: human FcγRIIb (human) (UniProt P31994); assay: MSD electrochemiluminescence binding assay; column IIB
[26] = molecular target: human FcRn (human) (UniProt P55899); assay: MSD electrochemiluminescence binding assay; column FcRn
[27] = molecular target: human FcγRIIIb (human) (UniProt O75015); assay: MSD electrochemiluminescence binding assay; column IIIB
[28] = molecular target: human FcγRIIa (H131 allele) (human) (UniProt P12318); assay: MSD electrochemiluminescence binding assay; column IIA_H
[29] = molecular target: human FcγRIIa (R131 allele) (human) (UniProt P12318); assay: MSD electrochemiluminescence binding assay; column IIA_R
[30] = molecular target: human FcγRIIIa (F158 allele) (human) (UniProt P08637); assay: MSD electrochemiluminescence binding assay; column IIIA_F
[31] = molecular target: human FcγRIIIa (V158 allele) (human) (UniProt P08637); assay: MSD electrochemiluminescence binding assay; column IIIA_V
[32] = molecular target: human C1q (human) (UniProt P02745); assay: MSD [cont'd]; remark: listed apart in the source
[33] = molecular target: human FcRn (human) (UniProt P55899); assay: MSD, pH 6 [cont'd]
[34] = molecular target: human FcRn (human) (UniProt P55899); assay: MSD [cont'd]; remark: listed apart in the source
[35] = molecular target: human FcγRIIIa (F158 allele) (human) (UniProt P08637); assay: MSD [cont'd]; remark: listed apart in the source
[36] = molecular target: human FcγRIIIa (V158 allele) (human) (UniProt P08637); assay: MSD [cont'd]; remark: listed apart in the source
[37] = molecular target: human FcγRIIIa (V158 allele) (human) (UniProt P08637); remark: listed apart in the source

human FcγRIIa (H131 allele) (human), sequence (P12318 34-218 limits assumed): as the sequence (P12318 34-218 H167R limits assumed) above, with R134H counted along it
human FcγRIIIa (F158 allele) (human), sequence (P08637 17-208 limits assumed): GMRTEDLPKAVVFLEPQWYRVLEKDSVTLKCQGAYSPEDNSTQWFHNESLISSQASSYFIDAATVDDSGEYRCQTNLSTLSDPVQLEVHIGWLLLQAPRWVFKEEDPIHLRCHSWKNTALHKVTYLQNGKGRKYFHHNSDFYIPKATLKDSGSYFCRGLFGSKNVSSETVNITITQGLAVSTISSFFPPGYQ
human FcγRIIb (human), sequence (P31994 43-217 limits assumed): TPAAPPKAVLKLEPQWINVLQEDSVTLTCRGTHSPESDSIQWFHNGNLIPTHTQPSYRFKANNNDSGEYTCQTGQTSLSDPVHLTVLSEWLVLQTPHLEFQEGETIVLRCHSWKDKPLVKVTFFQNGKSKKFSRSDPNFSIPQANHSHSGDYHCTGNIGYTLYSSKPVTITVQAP
human FcγRIIIa (V158 allele) (human), sequence (P08637 17-208 F176V limits assumed): as the sequence (P08637 17-208 limits assumed) above, with F160V counted along it

Substance: A330L_I332E (antibody)
- FcγR reporter signaling, fold-change vs wt [cont'd] [1]: 11.9 fold
- FcγR reporter signaling, fold-change vs wt [cont'd] [2]: 4.38 fold
- FcγR reporter signaling, fold-change vs wt [cont'd] [3]: 0.71 fold
- FcγR reporter signaling, fold-change vs wt [cont'd] [4]: 0.69 fold
- fold-change vs wt [5]: 0.03 fold
- fold-change vs wt [6]: 1.12 fold
- fold-change vs wt [7]: 11.9 fold
- fold-change vs wt [8]: 3.52 fold
- fold-change vs wt [9]: 5.19 fold
- fold-change vs wt [10]: 0.42 fold
- fold-change vs wt [11]: 0.52 fold
- fold-change vs wt [12]: 0.66 fold

Substance: G236A_S239D_A330L_I332E (antibody)
- FcγR reporter signaling, fold-change vs wt [cont'd] [1]: 19.4 fold
- FcγR reporter signaling, fold-change vs wt [cont'd] [2]: 6.02 fold
- FcγR reporter signaling, fold-change vs wt [cont'd] [3]: 2.47 fold
- FcγR reporter signaling, fold-change vs wt [cont'd] [4]: 1.2 fold
- fold-change vs wt [5]: 0 fold
- fold-change vs wt [6]: 1.02 fold
- fold-change vs wt [7]: 55.1 fold
- fold-change vs wt [8]: 8.03 fold
- fold-change vs wt [9]: 14 fold
- fold-change vs wt [10]: 5.15 fold
- fold-change vs wt [11]: 9.68 fold
- fold-change vs wt [12]: 1.94 fold

Substance: IgG1 antibody with Fc variant G236A_L328V_Q295E
- FcγR reporter signaling, fold-change vs wt [cont'd] [13]: 0.02 fold
- FcγR reporter signaling, fold-change vs wt [cont'd] [14]: 0.03 fold
- FcγR reporter signaling, fold-change vs wt [cont'd] [15]: 2.18 fold
- FcγR reporter signaling, fold-change vs wt [cont'd] [16]: 0.66 fold
- fold-change vs FY1 rIgG1m3 [17]: 0.07 fold
- fold-change vs FY1 rIgG1m3 [18]: 1.1 fold
- fold-change vs FY1 rIgG1m3 [19]: 0.5 fold
- fold-change vs wt [19]: 0.52 fold
- fold-change vs FY1 rIgG1m3 [20]: 0.4 fold
- fold-change vs wt [20]: 0.36 fold
- fold-change vs FY1 rIgG1m3 [21]: 0.7 fold
- fold-change vs wt [21]: 0.7 fold
- fold-change vs FY1 rIgG1m3 [22]: 7.8 fold
- fold-change vs wt [22]: 7.8 fold
- fold-change vs FY1 rIgG1m3 [23]: 10.8 fold
- fold-change vs wt [23]: 10.8 fold
- fold-change vs FY1 rIgG1m3 [24]: 0.9 fold
- fold-change vs wt [24]: 0.86 fold
- fold-change vs wt [5]: 0.07 fold
- fold-change vs wt [6]: 1.08 fold
- fold-change in binding vs wild-type IgG1 [25]: 0.81
- fold-change in binding vs wild-type IgG1 [26]: 1.07
- fold-change in binding vs wild-type IgG1 [27]: 0.71
- fold-change in binding vs wild-type IgG1 [28]: 7.76
- fold-change in binding vs wild-type IgG1 [29]: 10.7
- fold-change in binding vs wild-type IgG1 [30]: 0.52
- fold-change in binding vs wild-type IgG1 [31]: 0.36

Substance: IgG1 antibody with Fc variant R292P_Y300L
- FcγR reporter signaling, fold-change vs wt [cont'd] [1]: 7.42 fold
- FcγR reporter signaling, fold-change vs wt [cont'd] [2]: 3.66 fold
- FcγR reporter signaling, fold-change vs wt [cont'd] [3]: 0.98 fold
- FcγR reporter signaling, fold-change vs wt [cont'd] [4]: 0.72 fold
- fold-change to WT Fc [22]: 1.4 fold
- fold-change to WT Fc [23]: 0.682 fold
- fold-change to WT Fc [24]: 0.9 fold
- fold-change vs wt [32]: 2.07 fold
- fold-change to WT Fc [5]: 2.09 fold
- fold-change vs wt [5]: 2.09 fold
- fold-change vs wt [6]: 0.88 fold
- fold-change to WT Fc [7]: 5.29 fold
- fold-change vs wt [7]: 5.29 fold
- fold-change to WT Fc [8]: 4.85 fold
- fold-change vs wt [8]: 4.85 fold
- fold-change vs wt [9]: 1.72 fold
- fold-change vs wt [10]: 1.4 fold
- fold-change vs wt [11]: 0.68 fold
- fold-change vs wt [12]: 0.9 fold
- fold-change to WT Fc [33]: 0.879 fold

Substance: IgG1 antibody with Fc variant S239D_H268E_G236A
- FcγR reporter signaling, fold-change vs wt [cont'd] [1]: 12.8 fold
- FcγR reporter signaling, fold-change vs wt [cont'd] [2]: 5.22 fold
- FcγR reporter signaling, fold-change vs wt [cont'd] [3]: 2.15 fold
- FcγR reporter signaling, fold-change vs wt [cont'd] [4]: 1.8 fold
- fold-change vs wt [5]: 0.4 fold
- fold-change vs wt [6]: 0.91 fold
- fold-change vs wt [7]: 16.3 fold
- fold-change vs wt [8]: 7.9 fold
- fold-change vs wt [9]: 3.04 fold
- fold-change vs wt [10]: 11.7 fold
- fold-change vs wt [11]: 53.5 fold
- fold-change vs wt [12]: 5.09 fold

Substance: IgG1 antibody with Fc variant Y300L
- fold-change to WT Fc [22]: 1.86 fold
- fold-change to WT Fc [23]: 0.822 fold
- fold-change to WT Fc [24]: 1.18 fold
- fold-change vs wt [32]: 2.14 fold
- fold-change vs wt [34]: 1.06 fold
- fold-change vs wt [35]: 1.24 fold
- fold-change vs wt [36]: 1.62 fold
- fold-change to WT Fc [5]: 2.16 fold
- fold-change to WT Fc [7]: 1.25 fold
- fold-change to WT Fc [8]: 1.62 fold
- fold-change vs wt [10]: 1.86 fold
- fold-change vs wt [11]: 0.82 fold
- fold-change vs wt [12]: 1.18 fold
- fold-change to WT Fc [33]: 1.06 fold

Substance: L309T_P238D_P396L_T366A-afuc (antibody)
- FcγR reporter signaling, fold to wt-fucose [cont'd] [37]: 0.16 fold
